Source: publication PMC2734569, “Functional mapping of the fission yeast DNA polymerase δ B-subunit Cdc1 by site-directed and random pentapeptide insertion mutagenesis” (BMC Molecular Biology, 2009)

Tests used:
Test in all cases: two-hybrid; LexA-Cdc1 bait (pBTM116 or pBTM116BN) with Gal4-Pol3 prey and co-expressed c-myc-tagged Cdc27 (pAA-Cdc27) in S. cerevisiae CTY10-5d; ONPG liquid culture beta-galactosidase assay, mean of triplicates, as percent of wild-type Cdc1
Settings in all cases: partners not purified
[1] = molecular target: T1, Cdc1-J10 (Schizosaccharomyces pombe, UniProt P87324 1-462, Tyr-ArgGlyThrProTyr-Met)
T1 construct: Cdc1, S. pombe, with a pentapeptide inserted after residue 77; also called J11; E6; source: yeast two-hybrid fusion, in S. cerevisiae CTY10-5d
T1 sequence (looked up): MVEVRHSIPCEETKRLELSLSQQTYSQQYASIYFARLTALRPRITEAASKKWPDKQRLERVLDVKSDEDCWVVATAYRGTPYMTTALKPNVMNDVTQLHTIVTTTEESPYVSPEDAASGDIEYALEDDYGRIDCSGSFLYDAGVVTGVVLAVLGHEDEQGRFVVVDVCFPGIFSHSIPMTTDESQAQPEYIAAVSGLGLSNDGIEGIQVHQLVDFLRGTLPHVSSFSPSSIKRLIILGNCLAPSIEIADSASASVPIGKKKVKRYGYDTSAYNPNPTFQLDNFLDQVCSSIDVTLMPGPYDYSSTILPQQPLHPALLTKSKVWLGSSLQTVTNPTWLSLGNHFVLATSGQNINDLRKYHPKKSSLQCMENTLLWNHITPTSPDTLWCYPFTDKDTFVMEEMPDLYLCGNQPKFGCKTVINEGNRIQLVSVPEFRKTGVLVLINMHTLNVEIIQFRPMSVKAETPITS

[2] = molecular target: T2, Cdc1-A10 (Schizosaccharomyces pombe, UniProt P87324 1-462, Asn328Ala | Pro329Ala)
T2 construct: Cdc1, S. pombe, double point mutant (A5 and A6 combined); source: yeast two-hybrid fusion, in S. cerevisiae CTY10-5d
T2 sequence (looked up): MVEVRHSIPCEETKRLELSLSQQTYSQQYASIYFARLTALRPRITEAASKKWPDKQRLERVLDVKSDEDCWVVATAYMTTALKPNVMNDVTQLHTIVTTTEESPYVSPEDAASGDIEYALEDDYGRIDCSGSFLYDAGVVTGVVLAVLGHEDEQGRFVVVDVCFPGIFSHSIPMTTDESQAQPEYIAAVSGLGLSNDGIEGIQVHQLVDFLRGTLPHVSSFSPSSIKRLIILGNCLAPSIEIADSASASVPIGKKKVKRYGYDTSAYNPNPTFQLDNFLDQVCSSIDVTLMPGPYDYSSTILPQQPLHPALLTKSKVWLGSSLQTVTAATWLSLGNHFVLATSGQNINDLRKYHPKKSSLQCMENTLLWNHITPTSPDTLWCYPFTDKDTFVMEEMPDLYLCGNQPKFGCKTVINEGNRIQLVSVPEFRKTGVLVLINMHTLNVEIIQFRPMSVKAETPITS

[3] = molecular target: T3, Cdc1-E1 (Schizosaccharomyces pombe, UniProt P87324 1-462, Ser-GlyValProGlnSer-Asp)
T3 construct: Cdc1, S. pombe, with a pentapeptide inserted after residue 66; source: yeast two-hybrid fusion, in S. cerevisiae CTY10-5d
T3 sequence (looked up): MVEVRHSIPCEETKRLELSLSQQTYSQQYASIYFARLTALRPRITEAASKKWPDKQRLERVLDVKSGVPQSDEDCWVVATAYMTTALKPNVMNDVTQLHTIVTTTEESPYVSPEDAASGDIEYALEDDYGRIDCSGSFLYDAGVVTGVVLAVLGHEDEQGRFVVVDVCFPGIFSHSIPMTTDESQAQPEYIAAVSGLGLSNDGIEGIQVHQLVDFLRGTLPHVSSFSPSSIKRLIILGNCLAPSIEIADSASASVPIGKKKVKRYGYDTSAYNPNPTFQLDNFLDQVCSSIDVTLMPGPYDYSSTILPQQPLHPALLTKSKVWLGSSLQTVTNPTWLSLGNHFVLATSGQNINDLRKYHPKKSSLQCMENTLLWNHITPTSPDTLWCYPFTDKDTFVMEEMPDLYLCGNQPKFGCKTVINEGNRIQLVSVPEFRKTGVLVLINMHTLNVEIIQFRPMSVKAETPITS

[4] = molecular target: T4, Cdc1-E4 (Schizosaccharomyces pombe, UniProt P87324 1-462, Cys-GlyValProProCys-Glu)
T4 construct: Cdc1, S. pombe, with a pentapeptide inserted after residue 10; source: yeast two-hybrid fusion, in S. cerevisiae CTY10-5d
T4 sequence (looked up): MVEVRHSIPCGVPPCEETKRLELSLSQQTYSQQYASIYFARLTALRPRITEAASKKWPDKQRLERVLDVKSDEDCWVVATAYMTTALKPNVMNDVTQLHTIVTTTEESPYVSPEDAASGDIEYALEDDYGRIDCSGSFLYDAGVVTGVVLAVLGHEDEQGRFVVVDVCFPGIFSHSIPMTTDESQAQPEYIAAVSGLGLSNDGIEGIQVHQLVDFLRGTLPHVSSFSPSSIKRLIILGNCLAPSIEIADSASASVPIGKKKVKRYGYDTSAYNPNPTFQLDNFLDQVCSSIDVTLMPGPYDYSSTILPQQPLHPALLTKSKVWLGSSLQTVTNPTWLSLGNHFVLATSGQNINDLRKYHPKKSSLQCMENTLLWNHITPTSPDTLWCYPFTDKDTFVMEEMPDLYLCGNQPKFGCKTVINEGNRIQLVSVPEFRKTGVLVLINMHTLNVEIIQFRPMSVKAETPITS

two-hybrid beta-galactosidase activity, % of wild-type Cdc1 [1]: < 1% | two-hybrid beta-galactosidase activity, % of wild-type Cdc1 [2]: < 1% | two-hybrid beta-galactosidase activity, % of wild-type Cdc1 [3]: 65% | two-hybrid beta-galactosidase activity, % of wild-type Cdc1 [4]: 16%
B1: Pol3 (fission yeast DNA polymerase delta catalytic subunit) (natural protein, Schizosaccharomyces pombe, UniProt P30316 1-1086, looked up)
chain: MTDRSSNEGVVLNKENYPFPRRNGSIHGEITDVKRRRLSERNGYGDKKGSSSKEKTSSFEDELAEYASQLDQDEIKSSKDQQWQRPALPAINPEKDDIYFQQIDSEEFTEGSVPSIRLFGVTDNGNSILVHVVGFLPYFYVKAPVGFRPEMLERFTQDLDATCNGGVIDHCIIEMKENLYGFQGNEKSPFIKIFTTNPRILSRARNVFERGEFNFEELFPVGVGVTTFESNTQYLLRFMIDCDVVGMNWIHLPASKYQFRYQNRVSNCQIEAWINYKDLISLPAEGQWSKMAPLRIMSFDIECAGRKGVFPDPSIDPVIQIASIVTQYGDSTPFVRNVFCVDTCSQIVGTQVYEFQNQAEMLSSWSKFVRDVDPDVLIGYNICNFDIPYLLDRAKSLRIHNFPLLGRIHNFFSVAKETTFSSKAYGTRESKTTSIPGRLQLDMLQVMQRDFKLRSYSLNAVCSQFLGEQKEDVHYSIITDLQNGTADSRRRLAIYCLKDAYLPQRLMDKLMCFVNYTEMARVTGVPFNFLLARGQQIKVISQLFRKALQHDLVVPNIRVNGTDEQYEGATVIEPIKGYYDTPIATLDFSSLYPSIMQAHNLCYTTLLDSNTAELLKLKQDVDYSVTPNGDYFVKPHVRKGLLPIILADLLNARKKAKADLKKETDPFKKAVLDGRQLALKVSANSVYGFTGATNGRLPCLAISSSVTSYGRQMIEKTKDVVEKRYRIENGYSHDAVVIYGDTDSVMVKFGVKTLPEAMKLGEEAANYVSDQFPNPIKLEFEKVYFPYLLISKKRYAGLFWTRTDTYDKMDSKGIETVRRDNCPLVSYVIDTALRKMLIDQDVEGAQLFTKKVISDLLQNKIDMSQLVITKALSKTDYAAKMAHVELAERMRKRDAGSAPAIGDRVAYVIIKGAQGDQFYMRSEDPIYVLENNIPIDAKYYLENQLSKPLLRIFEPILGEKASSLLHGDHTRTISMAAPSVGGIMKFAVKVETCLGCKAPIKKGKTALCENCLNRSAELYQRQVAQVNDLEVRFARLWTQCQRCQGSMHQDVICTSRDCPIFYMRIAEHKKLQQSVDLLKRFDEMSW
notes: DNA polymerase delta catalytic subunit Pol3, S. pombe; prey plasmid named pACT-Pol3 in the results and pGAD2F-Pol3 in the methods; also called Gal4-Pol3; pACT-Pol3; source: yeast two-hybrid fusion, in S. cerevisiae CTY10-5d
